Measured values reported in the RNAGym collection of RNA variant scans (doi:10.1093/nar/gkz1192).

B1: CPEB3 Ribozyme (parent)
chain: UAACAGGGGGCCACAGCAGAAGCGUUCACGUCGCAGCCCCUGUCAGAUUCUGGUGAAUCUGCGAAUUCUGCUGUAUAUCUC

Variants of: B1
Test: self-cleavage, relative activity (ratio to wild type); higher = more cleavage; in vitro, sequencing
In short: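 Relative activity compares each variant's cleaved/total read fraction with that of the unmutated ribozyme. To get these fractions, barcoded CPEB3 ribozyme libraries from rounds of error-prone PCR were transcribed with T7 RNA polymerase for 5 hours at 37°C and then given 15 min of DNase I treatment before EDTA was added. The RNAs were reverse transcribed with template switching and sequenced on Illumina, and DNA sequencing linked barcodes to variants. A minimum of 5 reads applied, and three batches were averaged.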

| Variant | self-cleavage |
| --- | --- |
| UAACAGGGGGACACAGCAGAAGCGUUCACGUCGCAGCCCCUGUCAGACUCUGGUGAAUCUGCGAAUUCUGCUGUAUAUCUC [C11A U48C] | 0.32 |
| UAACAGGGGGACACAGCAGAAGCGUUCACGUCGCAGCCCCUGUCAGAGUCUGGUGAAUCUGCGAAUUCUGCUGUAUAUCUC [C11A U48G] | 0.06 |
| UAACAGGGGGACACAGCAGAAGCGUCCACGUCGCAGCCCCUGUCAGAUUCUGGUGAAUCUGCGAAUUCUGCUGUAUAUCUC [C11A U26C] | 0.18 |
| UAACAGGGGGACACAGCAGAAGCGUACACGUCGCAGCCCCUGUCAGAUUCUGGUGAAUCUGCGAAUUCUGCUGUAUAUCUC [C11A U26A] | 0.3 |
| UAACAGGGGGACACAGCAGAAGCGUUCACGUCGCAGCCCCUGUCAGAUUCUGGUGAAUCUGCGAAUUCUGCUAUAUAUCUC [C11A G73A] | 1.07 |
| UAACAGGGGGACACAGCAGAAGCGUUCACGUCGCAGCCCCUGUCAGAUUCUGGUGAAUCUGCGAAUUCUGCUCUAUAUCUC [C11A G73C] | 0.87 |
| UAACAGGGGGACACAGCAGAAGCGUUCACGUCGCAGCCCCUGUCAGAUUCCGGUGAAUCUGCGAAUUCUGCUGUAUAUCUC [C11A U51C] | 0.38 |
| UAACAGGGGGACACAGCAGAAGCAUUCACGUCGCAGCCCCUGUCAGAUUCUGGUGAAUCUGCGAAUUCUGCUGUAUAUCUC [C11A G24A] | 0.09 |
| UAACAGGGGGACACAGCAGAAGCGUUCACGUCGCAGCCCCUGUCAGAUUCUGGUGAAUCUGCGAAUUCUGCUGUAUAUCUG [C11A C81G] | 0.39 |
| UAACAGGGGGACACAGCAGAAGCGUUCACGUCGCAGCCCCUGUCAGAUUCUGGUGAAUCUGCGAAUUCUGCUGUAUAUCUU [C11A C81U] | 0.52 |
| UAACAGGGGGACACAGCAGAAGCGUUCACGCCGCAGCCCCUGUCAGAUUCUGGUGAAUCUGCGAAUUCUGCUGUAUAUCUC [C11A U31C] | 0.23 |
| UAACAGGGGGACACAGCAGAAGCGUUCACGACGCAGCCCCUGUCAGAUUCUGGUGAAUCUGCGAAUUCUGCUGUAUAUCUC [C11A U31A] | 0.3 |
| UAACAGGGGGACACAGCAGAAGCGUUCACGUCGCAGCCCCUGUCAGAUUCUGGUGAAUCUGCGAGUUCUGCUGUAUAUCUC [C11A A65G] | 0.26 |
| UAACAGGGGGACACAGCAGAAGCGUUCACGUCGCAGCCCCUGUCAGAUUCUGGUGAAUCUGCGAUUUCUGCUGUAUAUCUC [C11A A65U] | 0.18 |
| UAACAGGGGGACACAGCAGAAGCGUUCACGUCGCAGCCCCUGUCAGAUACUGGUGAAUCUGCGAAUUCUGCUGUAUAUCUC [C11A U49A] | 0.11 |
| UAACAGGGGGACACAGCAGAAGCGUUCACGUCGCAGCCCCUGUCAGAUGCUGGUGAAUCUGCGAAUUCUGCUGUAUAUCUC [C11A U49G] | 0.3 |
| UAACAGGGGGACACAGCAGAAGCGUUCACGUCGCAGCCCCUGUAAGAUUCUGGUGAAUCUGCGAAUUCUGCUGUAUAUCUC [C11A C44A] | 0.13 |

| Variant | self-cleavage |
| --- | --- |
| UAACAGGGGGACACAGCAGAAGCGUUCACGUCGCAGCCCCUGUCACAUUCUGGUGAAUCUGCGAAUUCUGCUGUAUAUCUC [C11A G46C] | 0.13 |
| UAACAGGGGGACACAGCAGAAGCGAUCACGUCGCAGCCCCUGUCAGAUUCUGGUGAAUCUGCGAAUUCUGCUGUAUAUCUC [C11A U25A] | 0.45 |
| UAACAGGGGGACACAGCAGAAGCGCUCACGUCGCAGCCCCUGUCAGAUUCUGGUGAAUCUGCGAAUUCUGCUGUAUAUCUC [C11A U25C] | 0.25 |
| UAACAGGGGGACACAGUAGAAGCGUUCACGUCGCAGCCCCUGUCAGAUUCUGGUGAAUCUGCGAAUUCUGCUGUAUAUCUC [C11A C17U] | 0.09 |
| UAACAGGGGGACACAGCAGAAGCGUUCACGUCGCAGCCCCUGUCAGAUUCUGGCGAAUCUGCGAAUUCUGCUGUAUAUCUC [C11A U54C] | 0.17 |
| UAACAGGGGGACACAGCAGAAGCGUUCACGUCGCAGCCCCUGUCAGAUUCUGGAGAAUCUGCGAAUUCUGCUGUAUAUCUC [C11A U54A] | 0.43 |
| UAACAGGGGGACACAGCAGAAGCGUUCACGUCGCAGCCCCUGUCAGAUUCUGGGGAAUCUGCGAAUUCUGCUGUAUAUCUC [C11A U54G] | 0.21 |
| UAACAGGGGGACACAGCAGAAGCGUUCACGUCGCAGCCCCUGUCAGAUUCUGGUGAAUCUGCGAAUUCUGCUGUGUAUCUC [C11A A75G] | 0.36 |
| UAACAGGGGGACACAGCAGAAGCGUUCACGUCGCAGCCCCUGUCAGAUUCUGGUGAAUCUGCGAAUUCUGCUGUUUAUCUC [C11A A75U] | 0.4 |
| UAACAGGGGGACACAGCAGAAGCGUUCACGUCGCAGCCCCUGUCAGAUUCUGGUGAAUCUGUGAAUUCUGCUGUAUAUCUC [C11A C62U] | 0 |
| UAACAGGGGGACACAGCAGAAGCGUUCACGUCGCAGCCCCUGUCAGAUUCUGGUGAAUCUGCGAAUUAUGCUGUAUAUCUC [C11A C68A] | 0.14 |
| UAACAGGGGGACACAGCAGAAGCGUUCACGUCGCAGCCCCCGUCAGAUUCUGGUGAAUCUGCGAAUUCUGCUGUAUAUCUC [C11A U41C] | 0.58 |
| UAACAGGGGGACACAGCAGAAGCGUUCACGUCGCAGCCCCAGUCAGAUUCUGGUGAAUCUGCGAAUUCUGCUGUAUAUCUC [C11A U41A] | 0.33 |
| UAACAGGGGGACACAGCAGAAGCGUUCACGUCACAGCCCCUGUCAGAUUCUGGUGAAUCUGCGAAUUCUGCUGUAUAUCUC [C11A G33A] | 0.07 |
| UAACAGGGGGACACAGCAGAAGUGUUCACGUCGCAGCCCCUGUCAGAUUCUGGUGAAUCUGCGAAUUCUGCUGUAUAUCUC [C11A C23U] | 0.06 |
| UAACAGGGGGACACAGCAGAAGGGUUCACGUCGCAGCCCCUGUCAGAUUCUGGUGAAUCUGCGAAUUCUGCUGUAUAUCUC [C11A C23G] | 0.13 |
| UAACAGGGGGACACAGCAGAAGCGUUCACGUCGCAGCCCCUGUCAGAUUCUGGUGAAUCUGCGUAUUCUGCUGUAUAUCUC [C11A A64U] | 0.06 |
